The values that follow come from patent US20150098945A1 (Daiichi Sankyo, published 2015).

Common to all, as to assay: flow cytometry on transfected HEK293 cells
Background: Flow cytometry measures light scatter and fluorescence of single cells or particles in a stream.

Assay [1] addresses N-terminal FLAG-tagged human ROBO1 (pCI-FLAG-hROBO1-transfected HEK293 cells) (human, UniProt Q9Y6N7 58-1651).
In assay [2] the target is T1, human ROBO2 (pCI-hROBO2-transfected HEK293 cells) (human).
T1 chain: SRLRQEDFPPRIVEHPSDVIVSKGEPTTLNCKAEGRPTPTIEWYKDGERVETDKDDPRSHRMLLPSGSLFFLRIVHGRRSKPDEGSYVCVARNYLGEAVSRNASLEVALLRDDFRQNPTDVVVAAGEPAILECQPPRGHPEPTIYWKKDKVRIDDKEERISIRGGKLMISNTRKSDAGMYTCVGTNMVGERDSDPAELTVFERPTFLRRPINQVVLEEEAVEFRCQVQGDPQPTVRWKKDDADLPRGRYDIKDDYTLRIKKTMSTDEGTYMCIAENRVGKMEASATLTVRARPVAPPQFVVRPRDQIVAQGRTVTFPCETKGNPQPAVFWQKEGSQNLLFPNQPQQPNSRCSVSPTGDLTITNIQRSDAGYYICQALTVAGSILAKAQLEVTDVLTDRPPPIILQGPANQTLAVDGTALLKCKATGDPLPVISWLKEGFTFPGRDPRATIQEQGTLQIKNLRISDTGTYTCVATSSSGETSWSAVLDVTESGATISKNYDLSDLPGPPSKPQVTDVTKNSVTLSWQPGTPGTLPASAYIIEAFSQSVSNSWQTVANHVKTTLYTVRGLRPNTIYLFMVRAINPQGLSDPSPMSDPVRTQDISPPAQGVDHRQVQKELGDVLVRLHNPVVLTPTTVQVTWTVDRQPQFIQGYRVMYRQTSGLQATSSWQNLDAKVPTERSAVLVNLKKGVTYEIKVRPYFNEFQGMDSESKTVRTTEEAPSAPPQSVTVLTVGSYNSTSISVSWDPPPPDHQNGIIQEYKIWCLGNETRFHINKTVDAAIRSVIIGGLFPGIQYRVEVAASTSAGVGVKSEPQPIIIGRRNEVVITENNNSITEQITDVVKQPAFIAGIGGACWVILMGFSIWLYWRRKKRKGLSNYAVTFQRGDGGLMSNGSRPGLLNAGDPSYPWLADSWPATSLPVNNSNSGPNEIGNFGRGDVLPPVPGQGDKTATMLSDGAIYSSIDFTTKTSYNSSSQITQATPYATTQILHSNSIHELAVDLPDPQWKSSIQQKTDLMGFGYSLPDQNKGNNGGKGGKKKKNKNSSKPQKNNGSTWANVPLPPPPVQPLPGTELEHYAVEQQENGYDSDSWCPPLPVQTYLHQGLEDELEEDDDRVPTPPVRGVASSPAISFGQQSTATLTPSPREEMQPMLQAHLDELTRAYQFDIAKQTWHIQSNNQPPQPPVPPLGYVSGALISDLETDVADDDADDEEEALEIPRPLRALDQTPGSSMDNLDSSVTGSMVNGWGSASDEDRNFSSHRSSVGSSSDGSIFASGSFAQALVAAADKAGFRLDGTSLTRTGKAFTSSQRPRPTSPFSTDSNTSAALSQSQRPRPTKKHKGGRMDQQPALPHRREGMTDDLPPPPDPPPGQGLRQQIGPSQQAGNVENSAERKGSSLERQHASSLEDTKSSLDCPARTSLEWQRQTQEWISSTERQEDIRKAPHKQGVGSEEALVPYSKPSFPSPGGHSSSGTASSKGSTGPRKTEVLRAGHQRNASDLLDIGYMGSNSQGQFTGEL

Assay [3] concerns the target T2, N-terminal FLAG-tagged cynomolgus monkey ROBO4, cynoROBO4-1 (pCI-FLAG-cynoROBO4-1) (cynomolgus monkey, UniProt Q8WZ75 28-1007 (human entry)).
T2 chain: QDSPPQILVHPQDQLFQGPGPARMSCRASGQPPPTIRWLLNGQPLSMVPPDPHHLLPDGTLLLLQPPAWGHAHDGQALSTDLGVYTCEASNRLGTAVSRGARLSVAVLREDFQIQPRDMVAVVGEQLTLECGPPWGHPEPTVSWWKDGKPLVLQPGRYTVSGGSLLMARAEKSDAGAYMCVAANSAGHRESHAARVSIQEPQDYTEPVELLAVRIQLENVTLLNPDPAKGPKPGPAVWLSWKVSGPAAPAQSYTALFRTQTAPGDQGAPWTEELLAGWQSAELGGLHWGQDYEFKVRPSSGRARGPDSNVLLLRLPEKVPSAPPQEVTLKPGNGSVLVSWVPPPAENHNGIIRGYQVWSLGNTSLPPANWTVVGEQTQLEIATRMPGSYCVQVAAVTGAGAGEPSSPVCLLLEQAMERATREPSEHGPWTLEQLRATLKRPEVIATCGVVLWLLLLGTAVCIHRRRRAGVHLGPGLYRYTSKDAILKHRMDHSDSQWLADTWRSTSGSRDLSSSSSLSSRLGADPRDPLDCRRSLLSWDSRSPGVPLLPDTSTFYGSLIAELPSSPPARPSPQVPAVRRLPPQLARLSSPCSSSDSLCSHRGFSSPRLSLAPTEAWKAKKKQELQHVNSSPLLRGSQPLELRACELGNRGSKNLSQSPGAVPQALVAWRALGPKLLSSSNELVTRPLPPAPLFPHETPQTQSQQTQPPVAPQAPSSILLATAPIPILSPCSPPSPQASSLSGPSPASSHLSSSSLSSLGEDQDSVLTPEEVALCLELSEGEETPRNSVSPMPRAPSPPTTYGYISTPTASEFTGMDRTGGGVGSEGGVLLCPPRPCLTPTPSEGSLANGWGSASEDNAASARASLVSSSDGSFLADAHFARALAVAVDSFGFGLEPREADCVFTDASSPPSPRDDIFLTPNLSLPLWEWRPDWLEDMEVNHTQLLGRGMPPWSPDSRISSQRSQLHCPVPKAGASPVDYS

Chain of N-terminal FLAG-tagged human ROBO1 (pCI-FLAG-hROBO1-transfected HEK293 cells) (Q9Y6N7 other isoform, or with tags, fused parts or gaps): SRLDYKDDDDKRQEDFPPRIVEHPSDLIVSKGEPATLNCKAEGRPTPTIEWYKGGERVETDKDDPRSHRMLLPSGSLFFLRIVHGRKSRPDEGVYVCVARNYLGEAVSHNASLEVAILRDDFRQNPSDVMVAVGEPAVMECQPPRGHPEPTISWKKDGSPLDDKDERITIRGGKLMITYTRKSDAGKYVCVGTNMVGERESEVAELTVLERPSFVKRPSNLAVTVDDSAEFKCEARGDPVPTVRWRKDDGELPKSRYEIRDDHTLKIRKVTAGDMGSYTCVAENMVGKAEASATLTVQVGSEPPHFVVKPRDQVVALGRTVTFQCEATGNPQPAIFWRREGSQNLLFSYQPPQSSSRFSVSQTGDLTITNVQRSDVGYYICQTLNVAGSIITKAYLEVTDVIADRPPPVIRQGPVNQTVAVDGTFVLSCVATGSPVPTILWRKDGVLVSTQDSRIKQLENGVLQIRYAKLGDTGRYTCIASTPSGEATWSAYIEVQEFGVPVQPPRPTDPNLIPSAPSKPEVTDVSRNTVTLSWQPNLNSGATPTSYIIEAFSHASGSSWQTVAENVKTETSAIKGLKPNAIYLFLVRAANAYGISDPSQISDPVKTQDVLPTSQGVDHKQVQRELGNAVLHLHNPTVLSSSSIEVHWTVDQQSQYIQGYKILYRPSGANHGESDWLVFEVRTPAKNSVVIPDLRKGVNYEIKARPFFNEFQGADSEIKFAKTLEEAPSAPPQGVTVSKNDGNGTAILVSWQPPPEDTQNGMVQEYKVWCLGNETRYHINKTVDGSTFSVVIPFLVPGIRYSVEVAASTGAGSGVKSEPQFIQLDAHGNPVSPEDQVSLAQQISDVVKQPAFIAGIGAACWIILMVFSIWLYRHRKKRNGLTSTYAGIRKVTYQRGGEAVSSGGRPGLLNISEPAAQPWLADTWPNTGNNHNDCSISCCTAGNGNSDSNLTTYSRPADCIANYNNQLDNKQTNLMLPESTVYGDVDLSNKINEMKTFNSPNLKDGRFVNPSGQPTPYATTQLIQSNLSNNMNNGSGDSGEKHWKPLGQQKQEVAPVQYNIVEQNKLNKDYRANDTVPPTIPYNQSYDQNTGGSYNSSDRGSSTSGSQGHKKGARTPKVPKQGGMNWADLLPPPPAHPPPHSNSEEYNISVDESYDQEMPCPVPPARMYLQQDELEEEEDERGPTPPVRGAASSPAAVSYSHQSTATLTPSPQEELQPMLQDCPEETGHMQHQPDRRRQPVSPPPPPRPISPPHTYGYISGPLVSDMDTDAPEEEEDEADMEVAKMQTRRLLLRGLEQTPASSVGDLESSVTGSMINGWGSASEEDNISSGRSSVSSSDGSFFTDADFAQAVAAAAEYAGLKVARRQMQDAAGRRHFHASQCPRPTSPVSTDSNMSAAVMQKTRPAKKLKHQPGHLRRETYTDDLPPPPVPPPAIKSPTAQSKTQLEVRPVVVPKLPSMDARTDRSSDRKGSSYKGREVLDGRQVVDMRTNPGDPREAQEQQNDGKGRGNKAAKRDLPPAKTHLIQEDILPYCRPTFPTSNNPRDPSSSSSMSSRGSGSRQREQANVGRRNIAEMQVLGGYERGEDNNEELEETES

B1: humanized MAb1 antibody H-1140 (antibody, human IgG2, kappa, V domains shown)
VH: EVQLVESGGGLVQPGGSLRLSCAASGFTFSTYAMSWVRQAPGKGLEWVATISQGGTYTYYPDSVKGRFTISRDNAKNTLYLQMNSLRAEDTAVYYCARLIYYDYLDYWGQGTLVTVSS
VL: DIVMTQSPLSLPVTLGEPASISCRSSQSLENSNGNTYLNWYLQKPGQSPQLLIYRVSNRFSGVPDRFSGSGSGTDFTLKISRVEAEDVGVYYCLQVTHVPWTFGPGTKVDIKR
notes: Human IgG2 / kappa constant regions; also called hMAb1-H2-type heavy chain + hMAb1-L1-type light chain
On to B1, for which the results for the binding result in assay [1], in assay [2] and in assay [3] were “no binding (tested: 10 µg/mL (method of 4)-4-2))”, “no binding (tested: 10 µg/mL (method of 4)-4-2))” and “binds”, respectively.
